Experimental data from the RNAGym collection of RNA variant scans (doi:10.1093/nar/gkz1192).

B1: CPEB3 Ribozyme (parent)
chain: UAACAGGGGGCCACAGCAGAAGCGUUCACGUCGCAGCCCCUGUCAGAUUCUGGUGAAUCUGCGAAUUCUGCUGUAUAUCUC

Variants of: B1
Experiment: self-cleavage, relative activity (ratio to wild type); higher = more cleavage; in vitro, sequencing
Method in brief: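 CPEB3 self-cleaving ribozyme mutant libraries were made by rounds of error-prone PCR, barcoded, and transcribed in vitro with T7 RNA polymerase for 5 hours at 37°C. Cleavage occurred during transcription and a 15 min DNase I step before EDTA stop. RNAs were reverse transcribed with template switching and Illumina-sequenced, with DNA sequencing mapping barcodes to variants. Relative activity is the variant's cleaved/total read fraction divided by wild type's (minimum 5 reads), averaged across three batches.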

Variant | self-cleavage
U60A U66C | 0.34
U60A U66A | 0.18
U58G G70A | 0.19
A57U U80A | 0.55
A57U U80C | 0.92
U60C G70A | 0.48
U60C G70C | 0.27
A57G U76G | 1.08
A57G U76C | 1.01
A57G U76A | 1.01
A57G C71U | 0.32
C59U G63A | 0.86
U58A G73A | 1.1
U58A C68U | 0.23
A57U A65G | 0.22
A57G A65G | 0.37
A57G A65C | 0.15
A57G A65U | 0.32
C59A G73U | 1.11
A57G G63A | 0.84
A57G A75G | 0.74
A57G A75U | 1.01
C59G U60C | 0.16
U58A C59A | 0.25

Variant | self-cleavage
U58A A77G | 0.38
U58A A77U | 0.43
U58A A77C | 0.33
U58G A64U | 0.17
C59U U72A | 0.4
C59U U72C | 1.14
A57G G73U | 1.15
A57G G73A | 1.25
A57G C59A | 0.2
A57G C59U | 0.83
A57G C59G | 0.21
U60C A75G | 0.37
U60C A75U | 0.57
U60C A75C | 0.72
U58C U76A | 0.68
U58C U76G | 0.69
U58C U76C | 0.67
A57G U69C | 0.48
A57G U69A | 0.54
A57G U69G | 0.72
U60A C79A | 0.88
U60A C79U | 0.69
A57U A77U | 1.01
A57U A77G | 0.76

Variant | self-cleavage
U58C U78A | 0.47
U58C U78G | 0.44
U58C U78C | 0.47
U58G U78C | 0.34
U58G U78A | 0.4
C59A U74G | 0.74
C59A U74C | 0.5
C59U A77G | 0.94
A57U U76A | 1.01
A57U U76C | 0.94
U60A A65G | 0.34
U60A A65U | 0.21
C59U A64U | 0.25
U58C U80C | 0.57
U58C U80A | 0.91
U58C U80G | 0.67
U60C A77G | 0.51
U60C A77U | 0.55
C59U A65G | 0.4
U58C A77G | 0.56
U58C A77C | 0.26
U58C A77U | 0.65
U58A U67A | 0.32
U58A U67C | 0.31

Variant | self-cleavage
C59A U72A | 0.13
C59A U72C | 0.34
U60A A77U | 0.52
U60A A77G | 0.56
U60A C62U | 0.26
U58C C68A | 0.2
A57U U60C | 0.27
A57U U60A | 0.24
U58C U66C | 0.28
U58C U66G | 0.23
C59G U74A | 0.37
U58G U60C | 0.3
U58G U60A | 0.18
A57G G61A | 0.59
A57G G61U | 0.64
C59G U69C | 0.2
U58C C62G | 0.27
U58C C62A | 0.36
U58C C62U | 0.22
U58G U69C | 0.2
C59U U69C | 0.48
C59U U69A | 0.41
C59U G73A | 1.45
C59A U69C | 0.23

Variant | self-cleavage
C59A U69A | 0.18
C59G U66C | 0.19
U60A U69G | 0.25
U60A U69A | 0.33
U60A U69C | 0.34
A57U C59U | 0.21
A57U U78C | 0.68
A57U U78G | 0.75
A57U U78A | 1.21
A57U U74A | 1.23
A57U U74C | 1.03
A57G U78G | 1.12
A57G U78C | 0.83
A57G U78A | 0.97
U58C U60G | 0.24
U58C U60A | 0.26
U58C U60C | 0.3
A57C U78A | 0.4
A57C U78C | 0.66
A57G U67C | 0.35
A57G U67A | 0.45
A57G U67G | 0.38
A57U G70A | 0.38
A57U G70U | 0.19

Variant | self-cleavage
U60C C81U | 0.74
U60C C81A | 0.37
A57C U67C | 0.27
C59A A77G | 0.31
A57G U60G | 0.26
A57G U60C | 0.42
A57G U60A | 0.4
U58G U74A | 0.31
U58A U78C | 0.42
A57G A64G | 0.81
A57G A64U | 0.36
U60A C68G | 0.43
C59A U78C | 0.38
C59A U78A | 0.22
C59G A75U | 0.28
A57U A64U | 0.21
A57U A64G | 0.75
U60C C68G | 0.31
U60C C68A | 0.32
U60A U72C | 0.64
U60A U72G | 0.61
U60A U72A | 0.54
U60C A65G | 0.28
U60C A65U | 0.27

Variant | self-cleavage
U60C A65C | 0.17
C59A C68A | 0.19
U58G U80C | 0.27
C59G C71A | 0.24
U60C G61C | 0.29
U60C G61U | 0.26
U58A U69C | 0.28
U58A U69A | 0.23
U58C C71U | 0.41
U58C C71A | 0.37
U60A U67C | 0.37
U60A U67A | 0.42
U60A U67G | 0.79
C59A A64G | 0.2
C59A U67C | 0.16
C59A U67A | 0.26
U58C G63C | 0.54
U58C G63U | 0.91
U58C G63A | 0.51
U58C G73A | 1.24
U58G | 0.34
U58A | 0.41
U58C | 0.56
